Source: patent US20230392166A1

Target: GFP-BAX fusion protein
Experiment: cell-based or functional assay

| percentage of cells with GFP-BAX translocation to mitochondria within 3.5 h after 1 µM staurosporine, live imaging of D407 cells (control without BCLXL) [%] | percentage of cells with punctate GFP-BAX (translocation to mitochondria) within 3.5 h after 1 µM staurosporine, live imaging of D407 cells [%] | Substance |
| --- | --- | --- |
| > 95 |  | mCherry |
|  | 8 | mCherry-BCLXL fusion protein (from UniProt Q64373 1-233) |
